The text below walks through data of paper PMC9471973 (Computational and Structural Biotechnology Journal, 2022).

No end group written: not given here.

Series [1] deals with the molecule itself. Kind of series: cross-linking.
Series [2] concerns the molecule itself. Nature of the series: cross-linking. This is another data set of the same source.
Series [3] concerns the molecule itself. Nature of the series: crystal structure.

B1: truncated mouse TRIM75 protein (136-467) containing the coiled coil and C-terminal domains, N-terminal FLAG tag (domain or fragment, UniProt Q3UWZ0 136-467, looked up)
chain: SLHRKHLQDYSKLLKWEVKEIQGLMSALNKRTVTLREQAEAQRSQLTSECEKLMRFLDQEERAAFSRLEDEEMRLEKRLLDNIAALEHHGSSLRDLLRHLMLTGELSEAKMLSTVKDFYLNCRRQLISPSIFPVQLRRVEYSFPLQYSALQKVIQHFTDNVTLDLKTAHPNLLISKDRTCVTFTKKRQRIPGSSSFTKSPVVLGIPHFNSGRHFWEVQVGKKPKWAIGICKADSSIGERQSPNPWGYWRIVWQGDSFNVSGADPDSRLKAARATSIGVFLDYELGEVSFYGMPEKCHLYTFRDTFSGPVCPYFYIGPQSEPLRLCSATDSEC
A word on the stoichiometry N: it is a count of units in the complex or per binding partner. On to B1, for which, in series [1], the “stoichiometry N” value amounted to 4.

B2: mouse TRIM75 coiled-coil domain with the CCm9A mutation (domain or fragment, UniProt Q3UWZ0 168-222, looked up)
chain: VTLREQAEAAASQATSEAEKAMRAADQEARAAFSRAEDEEMRLEKRLLDNIAALE
As to B2, the “stoichiometry N” value in series [2] was found to be 2.

B3: full-length mouse TRIM75 with N-terminal FLAG tag (natural protein, UniProt Q3UWZ0 1-467, looked up)
chain: MAHVEVLARLQKETKCPICLDDLTDPVTVECGHNFCRSCIKDFWAGQQATSSCPVCRHQCQHRNLRSNAQLGNMIETAQLLQGMENKRHESSTSCERHNQALTLFCEDDLQLLCDQCVEPESHGRHQVLSITEAASLHRKHLQDYSKLLKWEVKEIQGLMSALNKRTVTLREQAEAQRSQLTSECEKLMRFLDQEERAAFSRLEDEEMRLEKRLLDNIAALEHHGSSLRDLLRHLMLTGELSEAKMLSTVKDFYLNCRRQLISPSIFPVQLRRVEYSFPLQYSALQKVIQHFTDNVTLDLKTAHPNLLISKDRTCVTFTKKRQRIPGSSSFTKSPVVLGIPHFNSGRHFWEVQVGKKPKWAIGICKADSSIGERQSPNPWGYWRIVWQGDSFNVSGADPDSRLKAARATSIGVFLDYELGEVSFYGMPEKCHLYTFRDTFSGPVCPYFYIGPQSEPLRLCSATDSEC
In the case of B3, the “stoichiometry N” value in series [1] stood at 4.

B4: mouse TRIM75 coiled-coil domain (residues 168-222) (domain or fragment, UniProt Q3UWZ0 168-222, looked up)
chain: VTLREQAEAQRSQLTSECEKLMRFLDQEERAAFSRLEDEEMRLEKRLLDNIAALE
modifications: also: homodimer: interchain disulfide between C185 of two chains
Consider B4, for which, in series [3], the “stoichiometry N” value is 4.
